± gives the half width of the 95% confidence interval.
Assay: folding stability dG unfold from trypsin proteolysis; higher = more stable
How it was run: (§1)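 K50 was inferred by Bayesian fitting of sequencing counts obtained after protease digestion of designed mini-proteins. Unfolding free energy was derived by comparison with a sequence-predicted unfolded-state K50 and a shared folded-state K50, for each protease or both combined. The mini-proteins were under 80 residues, had no cysteine, were carried in a PA-tagged cDNA display construct, and were kept only if AlphaFold2 dimer inter-PAE exceeded 15.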

| Sequence | folding stability dG unfold |
| --- | --- |
| SAGGSAGGMFIALVTITLPNGEKITDLAFFESPEKIYVLNLKDGKWSEPKVEDIKVVPLEELLFSAGGSAGG [r6_558_TrMRF] | 1.92 ± 0.12 kcal/mol |
| SAGGMVYRVKVKITFPDGKTYYIPFPNFKSFEEILNVLKKLGFENLENIPIEVIEIEPIPEVPEELLKSAGG [r13_493_TrMRF] | 1.53 ± 0.066 kcal/mol |
| SKVRELLREIARPHGMPITDVKVEPPPDGWHKVTFQIQFPMKDPNGQPMRRMTFPATITVRNGKITEITISA [r9_519_TrROS] | 1.54 ± 0.11 kcal/mol |
| MRLRLTFRLPDGTEFRVERVEVLRVEPRGDRVVIPVRAYFTPEERRRLEELIPGLRDRPPLVVEVEIVLTGS [r1_35_TrMRF] | 3.05 ± 0.083 kcal/mol |
| SAGGSFEFKAEVFYDKEKDIYYVKIPYILKNTGKIIPIVKKVKAGDPIPVEKLAEKIAKELEELGISAGGSA [r2_221_TrMRF] | 0.357 ± 0.079 kcal/mol |
| SAGGSAGGSAGTITILFKDPEDAIDRIKEFAQKEGYKVKIDEIEYTPNGYVWIDIDIEPPSAGGSAGGSAGG [r11_304_TrROS] | 1.06 ± 0.045 kcal/mol |
| SAGGSAKKTLKIKVKTPKGGLKTIEIPDSVKKIDIIPGKDYVKIIIYNPKTKKKIELPPFKVIEISSAGGSA [r15_133_TrMRF] | 1.26 ± 0.047 kcal/mol |
| SNVHIHVEPDPDGRVKITLMMPPDNPDEFAEEIAENLGYPVKITDIEPFPFKKNGKPREYYMIEIEIRLPSA [r9_431_TrROS] | 1.15 ± 0.13 kcal/mol |
| SAKMTAEEIAAALAEELGLEVVEVVEVDEETGKITIRVDGKLIEITVVEEDGELKIEVRVVDEETGEELSAG [r14_270_TrROS_Hall] | 1.84 ± 0.087 kcal/mol |
| SAGGSAPREIPIMIRVPGYQIEIHKITVPPNGMVQIGLEWRNPGGDKPVTINIWLPLNEIKDFIKASAGGSA [r15_56_TrROS] | 1.83 ± 0.042 kcal/mol |
| SAGGSAGGSAGGSKNKKIKLGPEVKIKVKIEAKLEGGYSSENGLPEFKLDVKLEIGEVESAGGSAGGSAGGS [r10_877_TrMRF] | 0.727 ± 0.068 kcal/mol |
| SAGGSAGKPRPIDIWIPLPPGAEEVKIEQLDIFIPDGWRIRIEEIEIDPEDPGYIRVTVKIQPLDDSAGGSA [r15_852_TrROS] | 2.33 ± 0.1 kcal/mol |
| SAGGSATKVIYGMSVEEIRAAIKAGAKKIIIVADTEEQKKAAAEELEKEYNIKIEVKKIKPKKKKKSAGGSA [r15_243_TrROS_Hall] | 0.83 ± 0.065 kcal/mol |
| SAGGSAGGSIEELAKKTNIIEVKVTEFPNPKFKKAFIVYKNPKENKYKKGIYIFYDKKDGKLESAGGSAGGS [r12_133_TrMRF] | -0.185 ± 0.35 kcal/mol |
| SAGGSAMVVIRTTKPGGKVEVLAVNPEDGSKTVKTFSSSTSPKEVFEEVNKEFGGEVKVEKVELKASAGGSA [r15_544_TrMRF] | -0.439 ± 0.18 kcal/mol |
| SAGGKRRTINFDIEGMTPEKFVHMARMAIRNLPDPEQVTITINMRNPMWRRWFIELAKELPGIEIEFMSAGG [r13_718_TrROS] | 2.52 ± 0.061 kcal/mol |

| Sequence | folding stability dG unfold |
| --- | --- |
| SAGGSAGGSAGNKDYPVIEVTYPFPPGAPASDIKDFAEPFGFESIEFDDNGTVKVYFYLPSAGGSAGGSAGG [r11_961_TrROS] | 0.737 ± 0.051 kcal/mol |
| SAGGSMLFLRVRIEVRPPTAEDLAEGKEVKEVEILVEFDSVEELKEALEKLPPNAKVEVELVELEESAGGSA [r2_25_TrROS_Hall] | 2.36 ± 0.26 kcal/mol |
| SAGGSAGGSAGGKEITIMMPSPEAIKKLLPPGWKITNIEPIGRDPEDGYPYYMITFKPDSAGGSAGGSAGGS [r10_256_TrROS] | 1.43 ± 0.018 kcal/mol |
| SAGPWWMITIRLPGNKTITIMFPGVKVEVDPKNNTIRIRNPGLGHSIEFKFDPPGKIKDVDIEPIPPNASAG [r5_342_TrROS] | 3.39 ± 0.21 kcal/mol |
| SAGGSAGGSAAAPPPPTITITVEVRTLPDGTVEITATATLPDGTTLTVTLRINADGSLTATSAGGSAGGSAG [r3_259_TrROS_Hall] | 1.91 ± 0.13 kcal/mol |
| SSISPSSTLTFSKPFPDDDINAVKEFAEKLAKEIGPDVSVVKIEKDPNNPNKVTITISVPGTSITVNFSNSA [r9_1079_JUSTAS] | 1.09 ± 0.054 kcal/mol |
| SAELPPGMRLVIDDIEPMRNNGKPMLMIKLSIYDPAKPGKEITHWTIMVTNDNIMAIQPTTYRIPPDDISAG [r14_651_TrROS] | 2.64 ± 0.075 kcal/mol |
| SAGGSAGGSAPKVEPHPVTFTFENAVVTVTRYRVPDEDGNPLYFTSVSVFFLDKDGKPGFVFPSAGGSAGGS [r20_13_TrMRF] | 3.28 ± 0.076 kcal/mol |
| SAGGSAPSVFPFKAKFKDYDLEIKSITVYENGEVEINAIAYNPDGKKKVELNITLPYSEILDLLKSSAGGSA [r15_56_TrMRF] | 2.35 ± 0.059 kcal/mol |
| STTEVEVTPLPGNSTLVTTTTTTPEFDPANGTIRYTSETTTTTITYTPGTTEPTTTTTTTTTTTTIPATTSA [r9_140_JUSTAS] | 0.639 ± 0.062 kcal/mol |
| SARIRFPDGKPIDMEIVNIHRTPNGLTITIVLRHKDEYRVITFEIPPDGEIRIKSVERVPLPPGDPALVSAG [r14_13_TrROS] | 1.46 ± 0.059 kcal/mol |
| SAGGSAGGSAGGSAKIDLPFPAEITEIRPRPDGSVEIRLSFPTYTVTAIIPPNGIKIYGSAGGSAGGSAGGS [r4_280_TrMRF] | 0.855 ± 0.017 kcal/mol |
| SDPGHKFKMEIVREIYLPGQIRIFVHKMEHPNGNPWVNVMVRNPDGQMEPIAMVPSDDPDAKDEALKLIKSA [r9_1069_TrROS] | 0.035 ± 0.12 kcal/mol |
| SAGGSAGGSAGGSKTKAELFKVGDKLILATYHPDTGKVEIFYPDNSVETLPAEEAEKLFSAGGSAGGSAGGS [r10_1140_TrMRF] | 1.02 ± 0.052 kcal/mol |
| SAGGDEIAKEIANHAREQGYKVEVKVERDEDGMVKIDVEMSMPNGRRVTFSITINPDGIEIQSIEVTPSAGG [r13_203_TrROS] | 2.65 ± 0.12 kcal/mol |

Assay: folding stability dG unfold from chymotrypsin proteolysis; higher = more stable
How it was run: as §1

| Sequence | folding stability dG unfold |
| --- | --- |
| SAGGSAGGMFIALVTITLPNGEKITDLAFFESPEKIYVLNLKDGKWSEPKVEDIKVVPLEELLFSAGGSAGG [r6_558_TrMRF] | 2.73 ± 0.069 kcal/mol |
| SAGGMVYRVKVKITFPDGKTYYIPFPNFKSFEEILNVLKKLGFENLENIPIEVIEIEPIPEVPEELLKSAGG [r13_493_TrMRF] | 3.07 ± 0.11 kcal/mol |
| SKVRELLREIARPHGMPITDVKVEPPPDGWHKVTFQIQFPMKDPNGQPMRRMTFPATITVRNGKITEITISA [r9_519_TrROS] | 1.56 ± 0.12 kcal/mol |
| MRLRLTFRLPDGTEFRVERVEVLRVEPRGDRVVIPVRAYFTPEERRRLEELIPGLRDRPPLVVEVEIVLTGS [r1_35_TrMRF] | 4.38 ± 0.055 kcal/mol |
| SAGGSFEFKAEVFYDKEKDIYYVKIPYILKNTGKIIPIVKKVKAGDPIPVEKLAEKIAKELEELGISAGGSA [r2_221_TrMRF] | 1.89 ± 0.066 kcal/mol |
| SAGGSAGGSAGTITILFKDPEDAIDRIKEFAQKEGYKVKIDEIEYTPNGYVWIDIDIEPPSAGGSAGGSAGG [r11_304_TrROS] | 1.49 ± 0.11 kcal/mol |
| SAGGSAKKTLKIKVKTPKGGLKTIEIPDSVKKIDIIPGKDYVKIIIYNPKTKKKIELPPFKVIEISSAGGSA [r15_133_TrMRF] | 2.01 ± 0.031 kcal/mol |
| SNVHIHVEPDPDGRVKITLMMPPDNPDEFAEEIAENLGYPVKITDIEPFPFKKNGKPREYYMIEIEIRLPSA [r9_431_TrROS] | 2.56 ± 0.2 kcal/mol |
| SAKMTAEEIAAALAEELGLEVVEVVEVDEETGKITIRVDGKLIEITVVEEDGELKIEVRVVDEETGEELSAG [r14_270_TrROS_Hall] | 0.852 ± 0.073 kcal/mol |
| SAGGSAPREIPIMIRVPGYQIEIHKITVPPNGMVQIGLEWRNPGGDKPVTINIWLPLNEIKDFIKASAGGSA [r15_56_TrROS] | 3.1 ± 0.042 kcal/mol |
| SAGGSAGGSAGGSKNKKIKLGPEVKIKVKIEAKLEGGYSSENGLPEFKLDVKLEIGEVESAGGSAGGSAGGS [r10_877_TrMRF] | 1.09 ± 0.13 kcal/mol |
| SAGGSAGKPRPIDIWIPLPPGAEEVKIEQLDIFIPDGWRIRIEEIEIDPEDPGYIRVTVKIQPLDDSAGGSA [r15_852_TrROS] | 2.78 ± 0.045 kcal/mol |
| SAGGSATKVIYGMSVEEIRAAIKAGAKKIIIVADTEEQKKAAAEELEKEYNIKIEVKKIKPKKKKKSAGGSA [r15_243_TrROS_Hall] | 2.22 ± 0.039 kcal/mol |
| SAGGSAGGSIEELAKKTNIIEVKVTEFPNPKFKKAFIVYKNPKENKYKKGIYIFYDKKDGKLESAGGSAGGS [r12_133_TrMRF] | 0.544 ± 0.43 kcal/mol |
| SAGGSAMVVIRTTKPGGKVEVLAVNPEDGSKTVKTFSSSTSPKEVFEEVNKEFGGEVKVEKVELKASAGGSA [r15_544_TrMRF] | -0.912 ± 0.58 kcal/mol |
